In US20070031511A1, “Method of treatment” (priority 2003, published 2007) one finds ED50 (nM), proliferation of IMGE cells, thymidine uptake and % inhibition of binding by bismuth ions data, which are given here for one molecule.

The target of assay [1] is Ggly receptor on IMGE-5 cells. Briefly: cell-based or functional assay.
The target of assay [2] is Ggly receptor on IMGE-5 cells. Briefly: [125I]-Ggly binding to IMGE-5 cells in the presence of 2 moles Bi3+/mole Ggly.

B1: glycine-extended gastrin17 (Ggly) (peptide)
peptide: XGPWLEEEEEAYGWMDFG
modifications: N-terminal pyroglutamate (Z); 125I-iodinated (IODO-GEN) in the receptor binding assay
The molecule B1 came in with an ED50 (nM), proliferation of IMGE cells, thymidine uptake in assay [1] of 0.8 nM. In addition, the % inhibition of binding by bismuth ions in assay [2] came out at 50%.
